Results: patent US8168587B2, “Combination enzyme replacement and small molecule therapy for treatment of lysosomal storage diseases” (Genezyme Corporation, priority 2000, dated 2012)

Test system: Fabry mice
Assay: Sequential enzyme replacement then small molecule therapy: GB3 re-accumulation in Fabry mouse liver
Text: In vivo efficacy of combination enzyme replacement therapy plus small molecule therapy in Fabry disease. […] Study protocol for sequential combination of enzyme (α-galactosidase A) replacement followed by small molecule administration (NB-DNJ, AMP-DNJ or D-t-et-P4) on globotriaosylceramide (GB3) re-accumulation in Fabry mice. […] Results of study protocol for Fabry mouse liver tissue. GB3 re-accumulation at four weeks (μg GB3 per gm liver tissue) is plotted on the ordinate versus absence of small molecule treatment (Vehicle) or daily intra-peritoneal small molecule therapy with D-t-et-P4 (at either 5 mg/kg or 0.5 mg/kg), NB-DNJ (at 500 mg/kg), or AMP-DNJ (at 100 mg/kg).
Fabry mice were used to test the in vivo efficacy of combining enzyme replacement therapy with small molecule therapy in a sequential treatment format (FIG. 1). The study was designed to evaluate whether substrate inhibition (i.e. “substrate deprivation therapy”) using small molecules of the DNJ and P4 types could reduce re-accumulation of the storage material globotriaosylceramide (GB3). The study protocol (FIG. 1A) called for a single infusion of α-galactosidase A enzyme to reduce GB3 levels (measured at two weeks) to a “Baseline” level in Fabry mouse liver. GB3 re-accumulation was then measured at four weeks in control mice receiving no small molecule therapy (“Vehicle”) and in mice receiving various small molecules at various doses. Accordingly, two weeks after GB3 levels were reduced to a “Baseline” level of about 0.1 μg/g liver (FIG. 1B), a small molecule or vehicle was administered by intra-peritoneal (IP) injection.

For “D-threo-1-(3′,4′-ethylenedioxy)phenyl-2-palmitoylamino-3-pyrrolidino-1-propanol [D-t-et-P4, reference compound]”, the “GB3 re-accumulation in Fabry mouse liver tissue” value (5 mg/kg daily IP after single α-galactosidase A infusion, four week time point, vehicle about 0.8, baseline about 0.1) was “less than 0.4 μg/gm”.

B1: α-galactosidase A: lysosomal enzyme deficient in Fabry disease, given as a single intravenous infusion for enzyme replacement (protein, UniProt P06280 32-429, looked up)
Alpha-galactosidase A: LDNGLARTPTMGWLHWERFMCNLDCQEEPDSCISEKLFMEMAELMVSEGWKDAGYEYLCIDDCWMAPQRDSEGRLQADPQRFPHGIRQLANYVHSKGLKLGIYADVGNKTCAGFPGSFGYYDIDAQTFADWGVDLLKFDGCYCDSLENLADGYKHMSLALNRTGRSIVYSCEWPLYMWPFQKPNYTEIRQYCNHWRNFADIDDSWKSIKSILDWTSFNQERIVDVAGPGGWNDPDMLVIGNFGLSWNQQVTQMALWAIMAAPLFMSNDLRHISPQAKALLQDKDVIAINQDPLGKQGYQLRQGDNFEVWERPLSGLAWAVAMINRQEIGGPRSYTIAVASLGKGVACNPACFITQLLPVKRKLGFYEWTSRLRSHINPTGTVLLQLENTMQMSLKDLL
In the case of B1, the “Baseline GB3 level in Fabry mouse liver” value (two weeks after a single infusion of α-galactosidase A enzyme) is reported as “about 0.1 μg/g liver” and the “Baseline GB3 level in Fabry mouse liver” value (two weeks after a single α-galactosidase A intravenous infusion) is reported as “about 0.1 μg/gm liver tissue”.
